Assay results: patent US20050261472A1, “Binding moieties for fibrin” (Dyax Corp., priority 1999, published 2005)
Bridge positions count the residues as written; N and C are the ends. Ends that are not written are not given here.

T1: dried fibrin (UniProt P02671 36-629; P02675 45-491; P02679 27-437, limits assumed)
T1 construct: Polymerised fibrin made in 96-well plates from fibrinogen and thrombin, dried at 37 C and rehydrated; also called (rehydrated) dried fibrin; fibrin target
T1 sequence (looked up) 1: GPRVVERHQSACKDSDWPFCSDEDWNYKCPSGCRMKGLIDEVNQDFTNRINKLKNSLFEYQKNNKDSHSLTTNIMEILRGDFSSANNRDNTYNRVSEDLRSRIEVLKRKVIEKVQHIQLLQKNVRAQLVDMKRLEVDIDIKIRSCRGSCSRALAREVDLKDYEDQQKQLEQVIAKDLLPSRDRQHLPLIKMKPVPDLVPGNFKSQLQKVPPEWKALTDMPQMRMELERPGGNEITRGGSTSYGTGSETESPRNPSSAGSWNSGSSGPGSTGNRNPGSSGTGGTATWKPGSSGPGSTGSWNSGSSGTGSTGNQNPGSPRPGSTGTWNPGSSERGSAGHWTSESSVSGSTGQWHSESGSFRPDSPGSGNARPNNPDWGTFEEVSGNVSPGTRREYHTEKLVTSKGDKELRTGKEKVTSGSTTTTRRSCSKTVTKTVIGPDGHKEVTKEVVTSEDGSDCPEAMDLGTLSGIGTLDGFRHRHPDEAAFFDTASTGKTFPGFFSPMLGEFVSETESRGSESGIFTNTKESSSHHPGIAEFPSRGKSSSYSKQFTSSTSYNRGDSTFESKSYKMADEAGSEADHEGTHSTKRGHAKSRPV
T1 sequence (looked up) 2: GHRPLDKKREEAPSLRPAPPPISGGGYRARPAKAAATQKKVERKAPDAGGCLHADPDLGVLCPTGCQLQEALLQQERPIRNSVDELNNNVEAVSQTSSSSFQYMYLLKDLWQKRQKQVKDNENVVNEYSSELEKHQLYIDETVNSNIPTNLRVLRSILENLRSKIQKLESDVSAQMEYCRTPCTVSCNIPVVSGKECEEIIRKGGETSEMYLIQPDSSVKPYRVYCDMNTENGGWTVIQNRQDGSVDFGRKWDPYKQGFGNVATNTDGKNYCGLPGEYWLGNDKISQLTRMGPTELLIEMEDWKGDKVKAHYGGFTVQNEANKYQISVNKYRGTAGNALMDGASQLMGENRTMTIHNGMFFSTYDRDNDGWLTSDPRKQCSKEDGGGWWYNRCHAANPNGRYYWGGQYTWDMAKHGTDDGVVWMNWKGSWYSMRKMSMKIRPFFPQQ
T1 sequence (looked up) 3: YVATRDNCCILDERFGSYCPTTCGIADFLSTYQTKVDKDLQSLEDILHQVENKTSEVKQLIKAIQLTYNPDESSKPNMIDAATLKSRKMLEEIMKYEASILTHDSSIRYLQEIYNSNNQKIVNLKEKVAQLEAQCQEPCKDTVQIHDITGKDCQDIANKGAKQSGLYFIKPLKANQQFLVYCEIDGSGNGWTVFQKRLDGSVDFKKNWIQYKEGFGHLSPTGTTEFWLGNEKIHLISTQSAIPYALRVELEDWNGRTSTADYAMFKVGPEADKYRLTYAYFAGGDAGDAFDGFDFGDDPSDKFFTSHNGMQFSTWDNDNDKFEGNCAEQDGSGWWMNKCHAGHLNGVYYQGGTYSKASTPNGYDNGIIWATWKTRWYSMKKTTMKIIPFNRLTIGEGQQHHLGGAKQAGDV

B1: synthetic polypeptide RPCDYYGTCFD (peptide)
peptide: H-RPCDYYGTCFD-NH2
modifications: disulfide 3-9
SMILES: C[C@@H](O)[C@@H]1NC(=O)CNC(=O)[C@H](Cc2ccc(O)cc2)NC(=O)[C@H](Cc2ccc(O)cc2)NC(=O)[C@H](CC(=O)O)NC(=O)[C@@H](NC(=O)[C@@H]2CCCN2C(=O)[C@@H](N)CCCNC(=N)N)CSSC[C@@H](C(=O)N[C@@H](Cc2ccccc2)C(=O)N[C@@H](CC(=O)O)C(N)=O)NC1=O
notes: Solid-phase synthesis; disulfide loop between the cysteines
B2: synthetic polypeptide RPCNYYGTCLH (peptide)
peptide: H-RPCNYYGTCLH-NH2
modifications: disulfide 3-9
SMILES: CC(C)C[C@H](NC(=O)[C@@H]1CSSC[C@H](NC(=O)[C@@H]2CCCN2C(=O)[C@@H](N)CCCNC(=N)N)C(=O)N[C@@H](CC(N)=O)C(=O)N[C@@H](Cc2ccc(O)cc2)C(=O)N[C@@H](Cc2ccc(O)cc2)C(=O)NCC(=O)N[C@@H]([C@@H](C)O)C(=O)N1)C(=O)N[C@@H](Cc1c[nH]cn1)C(N)=O
notes: as for B1
B3: synthetic polypeptide LPCSYYGTCLH (peptide)
peptide: H-LPCSYYGTCLH-NH2
modifications: disulfide 3-9
SMILES: CC(C)C[C@H](NC(=O)[C@@H]1CSSC[C@H](NC(=O)[C@@H]2CCCN2C(=O)[C@@H](N)CC(C)C)C(=O)N[C@@H](CO)C(=O)N[C@@H](Cc2ccc(O)cc2)C(=O)N[C@@H](Cc2ccc(O)cc2)C(=O)NCC(=O)N[C@@H]([C@@H](C)O)C(=O)N1)C(=O)N[C@@H](Cc1c[nH]cn1)C(N)=O
notes: as for B1
B4: alanine scan peptide LPCDYYGTCAD (peptide)
peptide: H-LPCDYYGTCAD-NH2
modifications: disulfide 3-9
SMILES: CC(C)C[C@H](N)C(=O)N1CCC[C@H]1C(=O)N[C@H]1CSSC[C@@H](C(=O)N[C@@H](C)C(=O)N[C@@H](CC(=O)O)C(N)=O)NC(=O)[C@H]([C@@H](C)O)NC(=O)CNC(=O)[C@H](Cc2ccc(O)cc2)NC(=O)[C@H](Cc2ccc(O)cc2)NC(=O)[C@H](CC(=O)O)NC1=O

Legend:
[1] = target: DD(E) soluble fibrin-derived polypeptide (UniProt P02671); experiment: synthetic peptide, Kd against DD(E) target
[2] = target: DD(E) soluble fibrin-derived polypeptide (UniProt P02671); experiment: Kd against DD(E) target
dried fibrin [3] = target: T1, dried fibrin; experiment: dried fibrin plate, bound vs free peptide
dried fibrin [4] = target: T1, dried fibrin; experiment: dried fibrin plate, free peptide by mass spectrometry, bound vs free fit
Protocol: (§1) A fibrinogen solution was prepared at 10 mg/ml (or at twice the concentration of fibrin desired) in TBS buffer (50 mM Tris, 150 mM NaCl, pH 7.4). The fibrinogen solution typically contained ˜17 mM citrate. Subsequently, a solution was prepared containing 2 U/ml thrombin, 20 mM CaCl₂, and 5 mM ε-aminocaproic acid in TBS. The fibrinogen solution and thrombin solution were mixed 1:1 in the wells of a 96-well plate, aliquoting 50 μL of each solution in each well (total volume=100 μL). The plates were evaporated to dryness overnight at 37° C. The polypeptide to be tested, dissolved in water, was added to each well at concentrations between 1-200 μM. […] The plate containing the peptide and (rehydrated) dried fibrin was covered and incubated at 37° C. on a shaker table for 2 hours.
(§2) The supernatant in each well was removed by pipette and the concentration of the polypeptide was measured by mass spectrometry. The ion current detected at the mass of the peptide was monitored after injection of a sample into the mass spectrometer. The area-under-the-peak was quantitated and compared to standards of known concentration. The concentration of peptide in the supernatant is equal to the concentration of free peptide. The concentration of bound peptide was determined by subtracting the concentration of free peptide from the total (starting) concentration. A plot of [Bound Peptide] vs. [Free Peptide] was used to determine the Kd and the concentration of bound peptide at saturation. The curve was fit to the equation: [Bound]=N×[Free]/(Kd+[Free]) where [Bound] is the concentration of bound polypeptide, [Free] is the concentration of free polypeptide, Kd is the dissociation constant (equal to the reciprocal of Kₐ) and N is the concentration of binding sites. The number of binding sites per fibrin molecule was equal to the lo concentration of binding sites determined by the [Bound Polypeptide] vs. [Free Polypeptide] plot, divided by the concentration of fibrin (15 μM) used in the assay.

dried fibrin [5] = target: T1, dried fibrin; experiment: dried fibrin plate, bound vs free peptide; remark: listed apart in the source
Protocol: as §1, §2

Binder	Kd [2] [µM]	Kd (dried fibrin [4]) [µM]	further results
WFHCPYDLCHIL (disulfide 4-9 (inferred))	2.63	–	Kd [1]: 2.63 µM
QWECPYGLCWIQ (disulfide 4-9 (inferred))	2.96	–	Kd [1]: 2.96 µM
GQWECPYGLCWIQ (disulfide 5-10; not fully specified (N-terminus); also: Gd(III) chelate of DTPA) [Gd-DTPA-Gly[SEQ ID NO: 22]]	3.1	–	Kd (dried fibrin [3]): 3.6 µM
B1	–	6.8	–
B2	–	8.5	–
B3	–	13	–
LPCDYYATCLD (C-terminal amide; N-terminus free) [alanine scan peptide LPCDYYATCLD]	–	–	Kd (dried fibrin [5]): 41 µM
B4	–	–	Kd (dried fibrin [5]): 32 µM
